This assay concerns the target putative N-acetyltransferase from S. aureus subsp. aureus Mu50 (SaGNAT) (Staphylococcus aureus subsp. aureus Mu50). Kind of assay: SEC; Superdex 200, 50 mM Tris pH 8.0, 125 mM NaCl; elution compared with theoretical elution volumes for monomer, dimer and trimer. On the technique in general: SEC sorts molecules by how far they enter the pores of the column.

Experimental findings from article PMC4131848 are described below.

“putative N-acetyltransferase from S. aureus subsp. aureus Mu50 (SaGNAT) (enzyme)” came in with a stoichiometry N of 2.

Broadly, the stoichiometry N is the number of molecules, sites or subunits per partner or assembly.
